The target in this experiment is T1, GST-Cdc14 (S. cerevisiae, UniProt Q00684 1-551).
T1 sequence (looked up): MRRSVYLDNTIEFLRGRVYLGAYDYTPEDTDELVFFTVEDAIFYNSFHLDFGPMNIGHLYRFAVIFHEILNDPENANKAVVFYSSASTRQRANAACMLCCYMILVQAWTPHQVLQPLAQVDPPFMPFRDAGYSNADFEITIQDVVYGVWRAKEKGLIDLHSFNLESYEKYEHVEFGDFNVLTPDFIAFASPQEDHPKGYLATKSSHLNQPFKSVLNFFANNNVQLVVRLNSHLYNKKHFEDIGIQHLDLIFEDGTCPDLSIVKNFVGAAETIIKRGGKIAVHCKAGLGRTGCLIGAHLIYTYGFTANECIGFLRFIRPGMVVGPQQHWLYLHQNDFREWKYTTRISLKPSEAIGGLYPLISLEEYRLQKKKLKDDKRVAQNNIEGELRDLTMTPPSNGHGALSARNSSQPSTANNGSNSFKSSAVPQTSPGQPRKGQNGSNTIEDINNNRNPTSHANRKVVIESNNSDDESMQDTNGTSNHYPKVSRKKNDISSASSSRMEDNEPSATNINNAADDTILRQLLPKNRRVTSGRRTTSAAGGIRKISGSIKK
Put plainly: pull-down.

Data on one molecule can be found in paper PMC4039371 (Molecular Systems Biology, 2013).

B1: recombinant Ubc9 protein (enzyme, S. cerevisiae, UniProt P50623 1-157, looked up)
chain: MSSLCLQRLQEERKKWRKDHPFGFYAKPVKKADGSMDLQKWEAGIPGKEGTNWAGGVYPITVEYPNEYPSKPPKVKFPAGFYHPNVYPSGTICLSILNEDQDWRPAITLKQIVLGVQDLLDSPNPNSPAQEPAWRSFSRNKAEYDKKVLLQAKQYSK
For B1, the binding result is recorded as “binds”.
